According to the supplement of paper PMC7877785:
± gives the uncertainty stated by the source.

Test: self-splicing fitness, log relative to wild type (ln ratio); higher = more splicing; Tetrahymena group I intron in knt gene, E. coli kanamycin selection, DiMSum; sequences stand for … in CUCUCU…GGAGGGAAAAGUUAUCAGGCAUGCACCUGGUAGCUAGUCUUUAAACCAAUAGAUUGCAUCGGUUUAAAAGGCAAGACCGUCAAAUUGCGGGAAAGGGGUCAACAGCCGUUCAGUACCAAGUCUCAGGGGAAACUUUGAGAUGGCCUUGCAAAGGGUAUGGUAAUAAGCUGACGGACAUGGUCCUAACCACGCAGCCAAGUCCUAAGUCAACAGAUCUUCUGUUGAUAUGGAUGCAGUUCACAGACUAAAUGUCGGUCGGGGAAGAUGUAUUCUUCUCAUAAGAUAUAGUCGGACCUCUCCUUAAUGGGAGCUAGCGGAUGAAGUGAUGCAACACUGGAGCCGCUGGGAACUAAUUUGUAUGCGAAAGUAUAUUGAUUAGUUUUGGAGUACUCGUGGUCG
Summary of the method: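 Library with all eight P1ex-region intron nucleotides randomised, intron inside the knt kanamycin-resistance gene on pET-22b(+), in E. coli BL21(DE3). Cells grew overnight at 37°C or 30°C on LB agar with or without 25 μg/mL kanamycin (plus 100 μg/mL carbenicillin, 50 μM IPTG, 0.2% rhamnose), in six replicate transformations. Pooled colonies were amplicon-sequenced on Illumina HiSeq 2500. DiMSum fitness is the error-weighted combination of wild-type-normalised replicate fold changes, kanamycin versus none.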

Sequence | self-splicing fitness (ln) (37 °C) | self-splicing fitness (ln) (30 °C)
GCAGAGCAAUAUUACGGGCC | -0.867 ± 0.3 | –
CGAAAGCAAUAUUACGGUCU | -0.209 ± 0.089 | -0.258 ± 0.071
UUAGAGCAAUAUUACGAGUA | -2.1 ± 0.19 | -3.31 ± 0.29
UGGUAGCAAUAUUACGCGCG | -0.0153 ± 0.25 | 0.0906 ± 0.2
UCCGAGCAAUAUUACGCAGU | -2.31 ± 0.28 | -2.79 ± 0.33
CAAAAGCAAUAUUACGACCC | -1.72 ± 0.32 | -1.54 ± 0.15
CGGGAGCAAUAUUACGGCUG | -2.14 ± 0.34 | -2.43 ± 0.25
GUGCAGCAAUAUUACGUAUC | -1.79 ± 0.13 | -1.69 ± 0.13
CCGAAGCAAUAUUACGAAAC | -2.46 ± 0.37 | -3.12 ± 0.31
AUACAGCAAUAUUACGCGAG | -0.829 ± 0.1 | -2.35 ± 0.097
CGGUAGCAAUAUUACGUCCG | -2.02 ± 0.36 | -2.86 ± 0.3
GAGGAGCAAUAUUACGGCAC | -1.64 ± 0.19 | -2.08 ± 0.19
GCCUAGCAAUAUUACGCGAA | -1.64 ± 0.14 | -2.72 ± 0.18
GCCUAGCAAUAUUACGUACG | -1.52 ± 0.24 | -2.67 ± 0.23
GGAAAGCAAUAUUACGGUAC | -1.36 ± 0.19 | -0.689 ± 0.13
AGGUAGCAAUAUUACGCUGA | -1.14 ± 0.034 | -2.032 ± 0.019
GAAAAGCAAUAUUACGUCUC | -0.38 ± 0.092 | -1.3 ± 0.073
AACGAGCAAUAUUACGGGCA | -2.38 ± 0.24 | -2.92 ± 0.24
GUUCAGCAAUAUUACGCUGU | -1.65 ± 0.12 | -3.2 ± 0.17
